The assay deals with T1, MBD3-GFP (methyl-CpG-binding domain protein 3 fused to GFP), O95983.
T1 chain: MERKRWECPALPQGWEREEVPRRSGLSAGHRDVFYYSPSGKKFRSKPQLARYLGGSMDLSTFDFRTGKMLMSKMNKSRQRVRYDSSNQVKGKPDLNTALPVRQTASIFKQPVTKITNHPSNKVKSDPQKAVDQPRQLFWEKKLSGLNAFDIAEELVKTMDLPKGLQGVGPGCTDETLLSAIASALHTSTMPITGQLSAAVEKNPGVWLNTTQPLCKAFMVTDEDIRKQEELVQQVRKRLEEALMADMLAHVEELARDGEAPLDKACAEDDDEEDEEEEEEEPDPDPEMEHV
As to the kind of experiment: photon counting histogram. To be noted: remark: other sources report otherwise.

B1: MBD3-GFP (methyl-CpG-binding domain protein 3 fused to GFP), O95983 1-291 (natural protein)
chain: T1 chain
Molecule B1 displayed a dimer percentage (G1-phase) of 84%, a dimer percentage (G2-phase) of 16% and a dimer percentage (S-phase) of 48%.

Values taken from paper PMC4381056.
